Publication PMC5343488, “Epilepsy and intellectual disability linked protein Shrm4 interaction with GABABRs shapes inhibitory neurotransmission” (Nature Communications, 2017)

Molecular target: T1, GST-PDZ (Shrm4-PDZ domain, aa 1–91) (human, UniProt Q9ULL8 1-91)
T1 construct: Shrm4 (Shroom4), encoded by KIAA1202, PDZ domain, aa 1-91; in pGEX-4T-1, which should put GST at the N-terminus; source: E. coli BL21, purified using standard procedures
T1 sequence (looked up): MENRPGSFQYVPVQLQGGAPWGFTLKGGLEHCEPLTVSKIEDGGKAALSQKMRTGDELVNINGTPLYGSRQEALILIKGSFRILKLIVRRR
Assay: pull-down; competition: synthetic Tat-859–870 peptide added to the HEK293 lysate before the pull-down of GABAB1a by purified GST-PDZ; 10 μM or different concentrations
Details: both partners purified

B1: Tat-859–870 peptide (peptide)
peptide: YGRKKRRQRRRITRGEWQSET
notes: stretch of the GABAB1 C-tail named 859–870; also called Tat-peptide; Tat-859–870 (active) peptide; source: synthetic peptide (bought: Primm, Italy, and China Peptide, China)
binding result: binds
